The values below come from US20200338203A1 (Bicycle, published 2020).

Like-named read-outs stand apart in the source and are kept apart here. Numbered stars: 1 amine (or outer) side, 2 acyl side, 3 side chain; on linkers, the order of the positions; unused ones are H or OH. Bridge positions count the residues as written; N and C are the ends. Square brackets hold non-standard residues; d marks the D form. Primed or numbered codes have the meaning given here. Ends that are not written are not given here. K(Fl)″ = lysine labelled with carboxyfluorescein; K(Fl) = Lys carrying 5(6)-carboxyfluorescein; 1Nal = N[C@@H](Cc1cccc2ccccc12)C(=O)O; TBMB = c1c(C[*:1])cc(C[*:3])cc1C[*:2]; Gly(cPent) = N[C@H](C(=O)O)C1CCCC1; hArg = N=C(N)NCCCC[C@H](N)C(=O)O; Tle = CC(C)(C)[C@H](N)C(=O)O; AF488 = AlexaFluor488 label; Aib = CC(C)(N)C(=O)O; βAla = NCCC(=O)O; Sar = CNCC(=O)O

Assay [1] deals with T1, Human EphA2 (Human, UniProt P29317 24-537).
T1 construct: extracellular domain; also called EphA2 (Ecto), Human
The assay can be described thus: FP competition; competitor: fluorescent Compound 18. Here is the method: (§1) Peptides without a fluorescent tag were tested in competition with a peptide with a fluorescent tag and a known Kd (Table 2). Peptides were diluted to an appropriate concentration in assay buffer as described in the direct binding assay with a maximum of 5% DMSO, then serially diluted 1 in 2. Five μL of diluted peptide was added to the plate followed by 10 μL of human or mouse EphA2 (Table 1) at a fixed concentration which was dependent on the fluorescent peptide used (Table 2), then 10 μL fluorescent peptide added. Measurements were conducted as for the direct binding assay, however the gain was determined prior to the first measurement.

The target in assay [2] is T2, Human EphA2 (Ecto) (Human, UniProt P29317 24-537).
T2 construct: extracellular domain
The assay can be described thus: FP direct binding.

Assay [3] concerns the target Human & mouse EphA3 (Human & mouse) (UniProt P29320). The assay is described as follows: FP direct binding, selectivity.
Assay [4] addresses T1, Human EphA2. The assay is described as follows: FP competition; competitor: fluorescent Compound 66. Here is the method:
as §1

A further assay addresses T3, Human EphA1 (Human, UniProt P21709 26-547).
T3 construct: extracellular domain; also called EphA1 (Ecto), Human
T3 sequence (looked up): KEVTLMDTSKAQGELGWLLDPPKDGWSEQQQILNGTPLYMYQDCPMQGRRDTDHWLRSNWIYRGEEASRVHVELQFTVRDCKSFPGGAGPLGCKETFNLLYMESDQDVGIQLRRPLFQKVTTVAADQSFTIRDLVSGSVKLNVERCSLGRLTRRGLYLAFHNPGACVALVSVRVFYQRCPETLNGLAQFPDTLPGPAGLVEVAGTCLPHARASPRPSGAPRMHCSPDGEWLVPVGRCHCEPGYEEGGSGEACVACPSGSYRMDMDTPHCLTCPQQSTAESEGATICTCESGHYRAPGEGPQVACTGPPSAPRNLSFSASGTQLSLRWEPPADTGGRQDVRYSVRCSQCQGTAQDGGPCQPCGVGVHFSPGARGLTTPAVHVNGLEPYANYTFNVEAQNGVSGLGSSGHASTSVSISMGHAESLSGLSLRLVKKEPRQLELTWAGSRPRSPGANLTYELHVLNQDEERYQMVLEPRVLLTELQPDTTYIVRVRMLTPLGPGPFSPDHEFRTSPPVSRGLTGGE
The assay can be described thus: FP direct binding, selectivity. The protocol: (§2) The gain used for analysis was determined for each tracer at the end of the 60 minutes where there was no protein in the well. Data was analysed using Systat Sigmaplot version 12.0. mP values were fit to a user defined quadratic equation to generate a Kd value: f=ymin+(ymax−ymin)/Lig*((x+Lig+Kd)/2-sqrt((((x+Lig+Kd)/2)\hat{ }2)−(Lig*x))). “Lig” was a defined value of the concentration of tracer used.

In assay [5] the target is T2, Human EphA2 (Ecto). The assay is described as follows: FP competition; competitor Compound 18.
Assay [6] has as its target T4, Mouse EphA2 (Ecto) (Mouse, UniProt Q03145 26-538).
T4 construct: extracellular domain; not shown: Fc fusion or C-terminal polyHis
The assay is described as follows: FP competition; competitor Compound 18.

In the next assay the target is T5, mouse EphA2 (Mouse, UniProt Q03145 26-538).
T5 construct: extracellular domain; C-terminal polyHis; also called EphA2 (Ecto), Mouse
The assay is described as follows: FP direct binding, selectivity. Here is the method: as §2

Assay [7] addresses T4, Mouse EphA2 (Ecto). The assay is described as follows: FP direct binding.
For another assay, the target named is dog EphA2 (Dog). The assay can be described thus: FP direct binding, selectivity.
In a further assay the target is rat EphA2 (Rat, UniProt D3ZBN3 27-205). The assay can be described thus: FP direct binding, selectivity. Here is the method:
as §2

The target of assay [8] is T2, Human EphA2 (Ecto). The assay can be described thus: FP competition; competitor Compound 18. The source holds these as a separate data set.

T4 sequence (Q03145 26-538): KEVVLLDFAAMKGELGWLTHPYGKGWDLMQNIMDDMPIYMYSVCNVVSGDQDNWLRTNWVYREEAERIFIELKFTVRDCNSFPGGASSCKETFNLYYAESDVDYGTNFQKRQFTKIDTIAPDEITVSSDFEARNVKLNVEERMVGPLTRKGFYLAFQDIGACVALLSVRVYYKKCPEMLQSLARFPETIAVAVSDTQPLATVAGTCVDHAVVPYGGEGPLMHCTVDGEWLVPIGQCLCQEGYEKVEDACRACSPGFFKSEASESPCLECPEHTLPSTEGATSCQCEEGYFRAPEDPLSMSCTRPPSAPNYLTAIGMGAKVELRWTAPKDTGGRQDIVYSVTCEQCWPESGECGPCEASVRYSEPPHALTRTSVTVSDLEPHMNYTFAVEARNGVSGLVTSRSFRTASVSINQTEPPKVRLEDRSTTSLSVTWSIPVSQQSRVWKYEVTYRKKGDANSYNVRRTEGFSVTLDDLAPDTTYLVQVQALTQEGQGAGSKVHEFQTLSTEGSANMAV
T5 sequence (Q03145 26-538): as above
T2 sequence (P29317 24-537): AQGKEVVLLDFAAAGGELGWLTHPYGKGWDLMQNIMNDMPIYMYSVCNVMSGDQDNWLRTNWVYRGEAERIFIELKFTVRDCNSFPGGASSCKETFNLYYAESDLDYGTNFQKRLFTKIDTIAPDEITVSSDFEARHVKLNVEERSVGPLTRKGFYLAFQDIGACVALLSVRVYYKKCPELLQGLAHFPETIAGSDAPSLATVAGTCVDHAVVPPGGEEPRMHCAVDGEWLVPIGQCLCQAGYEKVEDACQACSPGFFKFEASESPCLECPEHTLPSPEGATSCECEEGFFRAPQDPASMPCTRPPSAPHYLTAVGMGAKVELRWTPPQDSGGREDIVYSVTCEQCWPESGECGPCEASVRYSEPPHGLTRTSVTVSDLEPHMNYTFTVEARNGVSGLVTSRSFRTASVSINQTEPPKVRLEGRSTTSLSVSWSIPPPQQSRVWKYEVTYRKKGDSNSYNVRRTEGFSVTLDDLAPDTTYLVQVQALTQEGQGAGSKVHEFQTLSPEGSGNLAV
T1 sequence (P29317 24-537): as above
Chain of Human & mouse EphA3 (Human & mouse) (P29320 21-541): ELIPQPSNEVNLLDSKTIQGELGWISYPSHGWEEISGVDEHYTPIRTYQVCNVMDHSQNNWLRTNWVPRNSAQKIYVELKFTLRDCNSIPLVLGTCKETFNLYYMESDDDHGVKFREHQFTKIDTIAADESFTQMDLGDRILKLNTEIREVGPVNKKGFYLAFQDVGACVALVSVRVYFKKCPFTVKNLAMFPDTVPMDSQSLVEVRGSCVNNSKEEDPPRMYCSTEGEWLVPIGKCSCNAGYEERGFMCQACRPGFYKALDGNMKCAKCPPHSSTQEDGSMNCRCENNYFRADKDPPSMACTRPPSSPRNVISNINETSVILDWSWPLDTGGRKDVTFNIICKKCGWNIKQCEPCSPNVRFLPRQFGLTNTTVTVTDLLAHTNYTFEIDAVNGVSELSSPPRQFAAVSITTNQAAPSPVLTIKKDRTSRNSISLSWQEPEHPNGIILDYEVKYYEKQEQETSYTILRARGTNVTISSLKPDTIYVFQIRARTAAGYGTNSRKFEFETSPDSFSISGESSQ

B1: Compound 155 (peptide)
peptide: ADVHCPWGPFWCPV[dA]RPGCA
modifications: linker 5-12-19 via TBMB
notes: bicyclic peptide
For B1, the Ki (commonly the dissociation constant of the complex between target and ligand, obtained from inhibition or displacement) with Human EphA2 [1] was 2 nM.

B2: Compound 146 (peptide)
peptide: {AF488-βAla}-[Sar][Sar][Sar][Sar][Sar][Sar][Sar][Sar][Sar][Sar]H[dD][Gly(cPent)]PC[Aib][1Nal]G[Aib]F[1Nal]CP[Tle]NR[Aib][dD]C
modifications: linker 15-22-29 via TBMB
For the molecule B2, the dissociation constant Kd (as a rule, the constant that tells how readily two partners part at equilibrium) in the assay with Human EphA2 (Ecto) [2] stood at 2.19 nM; in assay [3] it was 7190 nM.

B3: Compound 112 (peptide)
peptide: [Sar][Sar]ACPWGPFWCPVNRP[dA]C
modifications: linker 4-11-18 via TBMB
notes: bicyclic peptide
For B3, the Ki worked out at 89 nM with Human EphA2 [1] and 110 nM in the assay with Human EphA2 [4].

B4: Compound 1 (peptide)
peptide: ACMNDWLCSLGWTCA[Sar][Sar][Sar][Sar][Sar][Sar]-{K(Fl)}
modifications: linker 2-8-14 via TBMB
Consider B4, for which, in the assay with Human EphA1, binding was characterised by a dissociation constant (Kd) of 1640 nM. That is a single-digit micromolar value.

B5: Compound 173 (peptide)
peptide: Ac-[Sar][Sar]A[dD]VTCPWGPAWCPVNRPGC
modifications: linker 7-14-21 via TBMB
notes: bicyclic peptide
As for B5, the Ki in the assay with Human EphA2 [1] came to 6.69 nM.

B6: Compound 156 (peptide)
peptide: ADVHCPWGPFWCPVN[dA]PGCA
modifications: linker 5-12-19 via TBMB
notes: bicyclic peptide
Regarding B6, in the assay with Human EphA2 [1], the Ki was determined as 14.9 nM.

B7: Compound 163 (peptide)
peptide: Ac-[Sar][Sar]A[dD][Gly(cPent)]VTCPWGPFWCPVNRPGC
modifications: linker 8-15-22 via TBMB
For B7, the Ki with Human EphA2 (Ecto) [5] turned out to be 1.33 nM; with Mouse EphA2 (Ecto) [6], 1.74 nM.

B8: Compound 105 (peptide)
peptide: [Sar][Sar]ACPWGPFWCPVNR[dA]GC
modifications: linker 4-11-18 via TBMB
notes: bicyclic peptide
In the case of B8, the Ki with Human EphA2 [1] stood at 677 nM; with Human EphA2 [4] it was 471 nM.

B9: Compound 23 (peptide)
peptide: ACLVNDDCFYMGLCA[Sar][Sar][Sar][Sar][Sar][Sar]-{K(Fl)″}
modifications: linker 2-8-14 via TBMB
notes: bicyclic peptide, fluorescent
For the molecule B9, binding with mouse EphA2 was characterised by a dissociation constant (Kd) of 386 nM.

B10: Compound 140 (peptide)
peptide: {AF488-βAla}-[Sar][Sar][Sar][Sar][Sar][Sar][Sar][Sar][Sar][Sar]H[dD]VPC[Aib][1Nal]G[Aib]F[1Nal]CP[Tle]N[hArg]P[dD]C
modifications: linker 15-22-29 via TBMB
With B10, the equilibrium dissociation constant (Kd) in the assay with Human EphA2 (Ecto) [2] was 2.05 nM; with Mouse EphA2 (Ecto) [7] it was 4.55 nM; in assay [3] it was 3690 nM; in the assay with dog EphA2 (Dog) it was 8.7 nM; with mouse EphA2 it was 4.55 nM; with rat EphA2, 1.57 nM.

B11: Compound 12 (peptide)
peptide: ACPWGPAWCPVNRPGCA
modifications: N-terminal Fl-G-Sar5 before the entry (5(6)-carboxyfluorescein, Gly, five sarcosines); three Cys cyclised on TBMB
notes: bicyclic peptide, fluorescent
Molecule B11 had a Kd with mouse EphA2 of 55.5 nM.

B12: Compound 83 (peptide)
peptide: [Sar][Sar]ACPWGPAWCPVNRPGC
modifications: linker 4-11-18 via TBMB
notes: bicyclic peptide
In the case of B12, the Ki in the assay with Human EphA2 [1] was 199 nM; with Human EphA2 [4], 288 nM.

B13: Compound 292 (peptide)
peptide: [Sar][Sar]ACPWGPFWCPANRPGC
modifications: linker 4-11-18 via TBMB
notes: bicyclic peptide
For the molecule B13, in the assay with Human EphA2 [4], the Ki came out at 954 nM.

B14: Compound 104 (peptide)
peptide: [Sar][Sar]ACPWGPFWCPVNRAGC
modifications: linker 4-11-18 via TBMB
notes: bicyclic peptide
As to B14, the Ki stood at 124 nM with Human EphA2 [1] and 194 nM with Human EphA2 [4].

B15: Compound 291 (peptide)
peptide: [Sar][Sar]ACPWGPFWCAVNRPGC
modifications: linker 4-11-18 via TBMB
notes: bicyclic peptide
For B15, the Ki with Human EphA2 [1] was more than 1000 nM.

B16: Compound 289 (peptide)
peptide: [Sar][Sar]ACPWGAFWCPVNRPGC
modifications: linker 4-11-18 via TBMB
notes: bicyclic peptide
In the case of B16, the figures for the inhibitory constant (Ki) in the assay with Human EphA2 [1] and with Human EphA2 [4] were more than 1000 nM and 1100 nM, respectively.

B17: Compound 293 (peptide)
peptide: [Sar][Sar]ACPWGPFWCPVNAPGC
modifications: linker 4-11-18 via TBMB
notes: bicyclic peptide
Take B17: the Ki with Human EphA2 [4] amounted to 711 nM.

B18: Compound 288 (peptide)
peptide: [Sar][Sar]ACPWAPFWCPVNRPGC
modifications: linker 4-11-18 via TBMB
notes: bicyclic peptide
B18: the Ki in the assay with Human EphA2 [1] was more than 1000 nM.

B19: Compound 111 (peptide)
peptide: [Sar][Sar]ACPWGPFWCPVNRPAC
modifications: linker 4-11-18 via TBMB
notes: bicyclic peptide
As for B19, the values for the Ki with Human EphA2 [1] and with Human EphA2 [4] were 108 nM and 238 nM, respectively.

B20: Compound 286 (peptide)
peptide: [Sar][Sar]ACAWGPFWCPVNRPGC
modifications: linker 4-11-18 via TBMB
notes: bicyclic peptide
B20: the Ki with Human EphA2 [4] came to 886 nM.

B21: Compound 101 (peptide)
peptide: ACPWGPFWCPVARPGC
modifications: N-terminal Sar2 before the entry; three Cys cyclised on TBMB
notes: bicyclic peptide
As for B21, the Ki turned out to be 293 nM with Human EphA2 [1] and 265 nM in the assay with Human EphA2 [4].

B22: Compound 225 (peptide)
peptide: Ac-[Sar][Sar]H[dD]VPCPWGPFWCPVNRPGC
modifications: linker 7-14-21 via TBMB
On to B22, for which the inhibition constant Ki came to 1 nM in the assay with Human EphA2 (Ecto) [5] and 2.08 nM with Mouse EphA2 (Ecto) [6].

B23: Compound 262 (peptide)
peptide: Ac-[Sar][Sar]H[dD]VPCP[1Nal]G[Aib]F[1Nal]CP[Tle]NR[Aib]GC
modifications: linker 7-14-21 via TBMB
In the case of B23, the inhibition constant (Ki) came to 0.71 nM with Human EphA2 (Ecto) [8] and 0.72 nM with Mouse EphA2 (Ecto) [6].

B24: Compound 302 (peptide)
peptide: [Sar][Sar]ACPWGPFWCPVN[dA]PGC
modifications: linker 4-11-18 via TBMB
notes: bicyclic peptide
Consider B24, for which the Ki in the assay with Human EphA2 [1] is more than 1000 nM; with Human EphA2 [4] it was 1410 nM.

B25: Compound 158 (peptide)
peptide: Ac-[Sar][Sar]A[dD]VTCPWGPFWCPVNRPGC
modifications: linker 7-14-21 via TBMB
On to B25, for which the Ki in the assay with Human EphA2 (Ecto) [5] was 2.05 nM; in the assay with Mouse EphA2 (Ecto) [6], 2.2 nM.

B26: Compound 297 (peptide)
peptide: [Sar][Sar]ACPWG[dA]FWCPVNRPGC
modifications: linker 4-11-18 via TBMB
notes: bicyclic peptide
As for B26, the Ki with Human EphA2 [4] is 1500 nM.

B27: Compound 296 (peptide)
peptide: [Sar][Sar]ACPW[dA]PFWCPVNRPGC
modifications: linker 4-11-18 via TBMB
notes: bicyclic peptide
For the molecule B27, the Ki with Human EphA2 [4] turned out to be 1000 nM.

B28: Compound 151 (peptide)
peptide: ADVHCPWAPFWCPVNRPGCA
modifications: linker 5-12-19 via TBMB
notes: bicyclic peptide
Consider B28, for which, in the assay with Human EphA2 [1], the Ki worked out at 394 nM.

B29: Compound 152 (peptide)
peptide: ADVHCPWGAFWCPVNRPGCA
modifications: linker 5-12-19 via TBMB
notes: bicyclic peptide
As for B29, the inhibitory constant (Ki) with Human EphA2 [1] was 1.8 nM.
